The results in this text go back to paper doi:10.1101/2023.03.26.534243.

pKd: −log10 of the molar value.

Among the targets are FcγRIa (UniProt P12314); FcγRIIIa_(V176) (UniProt P08637); FcγRIIb/c (UniProt P31994); FcγRIIa_(H167) (UniProt P12318); FcγRIIIa_(F176) (UniProt P08637).
What all share (assay): BLI

Sequence of UniProt P12314 (P12314 16-292): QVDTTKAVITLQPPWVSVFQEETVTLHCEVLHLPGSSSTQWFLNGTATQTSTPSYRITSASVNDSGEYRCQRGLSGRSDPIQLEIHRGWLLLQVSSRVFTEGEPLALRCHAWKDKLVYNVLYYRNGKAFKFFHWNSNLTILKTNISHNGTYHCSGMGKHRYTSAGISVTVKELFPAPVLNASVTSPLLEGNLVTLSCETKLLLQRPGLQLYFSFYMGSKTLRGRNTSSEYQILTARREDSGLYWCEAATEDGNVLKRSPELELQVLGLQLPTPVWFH
Sequence of UniProt P31994 (P31994 43-217): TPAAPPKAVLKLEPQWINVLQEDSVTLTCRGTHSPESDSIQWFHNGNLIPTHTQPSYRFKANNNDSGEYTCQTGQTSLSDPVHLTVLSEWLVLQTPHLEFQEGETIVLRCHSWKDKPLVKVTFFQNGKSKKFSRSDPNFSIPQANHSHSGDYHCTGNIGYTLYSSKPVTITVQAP
Sequence of UniProt P12318 (P12318 34-217): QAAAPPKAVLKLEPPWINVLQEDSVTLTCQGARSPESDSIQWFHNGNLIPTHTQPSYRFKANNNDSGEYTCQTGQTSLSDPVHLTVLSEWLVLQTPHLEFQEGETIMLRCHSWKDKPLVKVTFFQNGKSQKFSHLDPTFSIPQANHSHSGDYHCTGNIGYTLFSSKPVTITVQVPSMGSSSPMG

The pKd is the Kd on a negative log10 scale, so that one unit is a factor of ten. A lower pKd goes with a large Kd. As for Pertuzumab IgG4 VH7 (antibody), in the assay with FcγRIa, the pKd was 7.68. As for Pertuzumab IgG4 VH3 (antibody), the pKd with FcγRIa was 6.90.

As a reminder, the kon is the rate constant with which the complex forms. The substance Pertuzumab IgG3 VH4 (antibody) gave a pKd with FcγRIIIa_(V176) of 7.05. Moreover, the kon in the assay with FcγRIIb/c turned out to be 72900 M⁻¹ s⁻¹. The substance Pertuzumab IgG2 VH3 (antibody) registered a kon in the assay with FcγRIIb/c of 308000 M⁻¹ s⁻¹. Regarding Pertuzumab IgG4 VH5 (antibody), the pKd with FcγRIa is 6.82. Broadly, the koff is a measure of how fast the partners let go of each other. A lower koff goes with slow dissociation. Take Pertuzumab IgG2 VH4 (antibody): in the assay with FcγRIIa_(H167), the kon is 360000 M⁻¹ s⁻¹. In the assay with FcγRIIb/c, this substance gave a koff of 0.00934 s⁻¹. In the case of Pertuzumab IgG3 VH5 (antibody), the koff with FcγRIIa_(H167) stood at 0.00279 s⁻¹. This substance also gave a pKd with FcγRIIb/c of 7.61. As to Pertuzumab IgG4 VH6 (antibody), the pKd in the assay with FcγRIa was 8.15. Take Pertuzumab IgG3 VH1 (antibody): in the assay with FcγRIIIa_(F176), the negative-log Kd (pKd) was 7.03, the koff was found to be 0.0328 s⁻¹ and the kon was determined as 160000 M⁻¹ s⁻¹. In the assay with FcγRIa, this substance showed a koff of 0.000553 s⁻¹ and a kon of 208000 M⁻¹ s⁻¹. For Pertuzumab IgG4 VH1 (antibody), the pKd with FcγRIa is 8.44. Regarding Pertuzumab IgG3 VH3 (antibody), in the assay with FcγRIIIa_(V176), the pKd is 6.74, the koff was 0.0178 s⁻¹ and the kon was found to be 13500 M⁻¹ s⁻¹. The substance further gave a pKd in the assay with FcγRIIa_(H167) of 8.24. Consider Pertuzumab IgG4 VH4 (antibody), for which the pKd in the assay with FcγRIa is 6.72. As for Pertuzumab IgG2 VH1 (antibody), the kon in the assay with FcγRIIb/c was 176000 M⁻¹ s⁻¹. In turn, Pertuzumab IgG4 VH2 (antibody) had a pKd with FcγRIa of 7.12.
